Target: ELP-substrate fusion M(GVGVP)60…
Assay: cell-based or functional assay

ELP-substrate fusion M(GVGVP)60…, sequence (chain, as listed by the source): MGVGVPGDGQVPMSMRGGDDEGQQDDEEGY

Human MMP-1 catalytic domain (recombinant, produced in E. coli, 19.9 kDa) (from UniProt P03956 100-269) (enzyme)
aggregation time (optical density versus time), 50 ng/mL MMP-1, without inhibitor: < 50 min

— US20160348147A1, “SYSTEMS AND DEVICES FOR PROTEASE DETECTION BASED ON ENGINEERED POLYMERS AND BIOPOLYMERS AND METHODS OF USE” (DUKE UNIVERSITY, priority 2014, published 2016)
